The supplement of paper PMC5998384

Assays:
[1] = system: HeLa Kyoto; test: melting temperature (median over replicates), in situ; higher = more thermally stable
[2] = system: HeLa Kyoto; test: thermal stability score vs G1/S (z-score of summed log2 fold changes over temperatures); higher = more thermally stable than in G1/S
[3] = cell cycle stage: early G1 (4.5 h after nocodazole release)
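Wherever melting temperature (median over replicates), in situ is given: HeLa Kyoto cells synchronized by double thymidine or nocodazole block, proteins quantified by TMT10plex mass spectrometry, three independent biological replicates.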
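Wherever thermal stability score vs G1/S (z-score of summed log2 fold changes over temperatures) is given: synchronized HeLa Kyoto cells, proteins quantified by TMT10plex mass spectrometry, three biological replicates, mitosis taken 0.5 h after nocodazole release, G1/S directly after double thymidine block.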

| Sequence | melting temperature ([1]; cell cycle stage: mitosis) | thermal stability score [2, 3] | thermal stability score ([2]; cell cycle stage: mitosis) | melting temperature ([1]; cell cycle stage: G1/S) |
| --- | --- | --- | --- | --- |
| MAALGGDGLRLLSVSRPERPPESAALGGLGPGLCCWVSVFSCLSLACSYVGSLYVWKSELPRDHPAVIKRRFTSVLVVSSLSPLCVLLWRELTGIQPGTSLLTLMGFRLEGIFPAALLPLLLTMILFLGPLMQLSMDCPCDLADGLKVVLAPRSWARCLTDMRWLRNQVIAPLTEELVFRACMLPMLAPCMGLGPAVFTCPLFFGVAHFHHIIEQLRFRQSSVGNIFLSAAFQFSYTAVFGAYTAFLFIRTGHLIGPVLCHSFCNYMGFPAVCAALEHPQRRPLLAGYALGVGLFLLLLQPLTDPKLYGSLPLCVLLERAGDSEAPLCS [RCE1] | 55.3 °C | -0.209 | -0.247 |  |
| MAEFPSKVSTRTSSPAQGAEASVSALRPDLGFVRSRLGALMLLQLVLGLLVWALIADTPYHLYPAYGWVMFVAVFLWLVTIVLFNLYLFQLHMKLYMVPWPLVLMIFNISATVLYITAFIACSAAVDLTSLRGTRPYNQRAAASFFACLVMIAYGVSAFFSYQAWRGVGSNAATSQMAGGYA [PLLP] | 58.5 °C | -2.71 | -3.25 | 56.7 °C |
| MANAEVSVPVGDVVVVPTEGNEGENPEDTKTQVILQLQPVQQGLFIDGHFYNRIYEAGSENNTAVVAVETHTIHKIEEGIDTGTIEANEDMEIAYPITCGESKAILLWKKFVCPGINVKCVKFNDQLISPKHFVHLAGKSTLKDWKRAIRLGGIMLRKMMDSGQIDFYQHDKVCSNTCRSTKFDLLISSARAPVPGQQTSVVQTPTSADGSITQIAISEESMEEAGLEWNSALTAAVTMATEEGVKKDSEEISEDTLMFWKGIADVGLMEEVVCNIQKEIEELLRGVQQRLIQAPFQVTDAAVLNNVAHTFGLMDTVKKVLDNRRNQVEQGEEQFLYTLTDLERQLEEQKKQGQDHRLKSQTVQNVVLMPVSTPKPPKRPRLQRPASTTVLSPSPPVQQPQFTVISPITITPVGQSFSMGNIPVATLSQGSSPVTVHTLPSGPQLFRYATVVSSAKSSSPDTVTIHPSSSLALLSSTAMQDGSTLGNMTTMVSPVELVAMESGLTSAIQAVESTSEDGQTIIEIDPAPDPEAEDTEGKAVILETELRTEEKVVAEMEEHQHQVHNVEIVVLED [GMEB1] |  | 0.789 | 2.68 | 49 °C |
| MEAVVNLYQEVMKHADPRIQGYPLMGSPLLMTSILLTYVYFVLSLGPRIMANRKPFQLRGFMIVYNFSLVALSLYIVYEFLMSGWLSTYTWRCDPVDYSNSPEALRMVRVAWLFLFSKFIELMDTVIFILRKKDGQVTFLHVFHHSVLPWSWWWGVKIAPGGMGSFHAMINSSVHVIMYLYYGLSAFGPVAQPYLWWKKHMTAIQLIQFVLVSLHISQYYFMSSCNYQYPVIIHLIWMYGTIFFMLFSNFWYHSYTKGKRLPRALQQNGAPGIAKVKAN [ELOVL1] | 52.4 °C | 2.04 | 1.9 | 52.8 °C |
| MESALAVPRLPPHDPGTPVLSVVDMHTGGEPLRIVLAGCPEVSGPTLLAKRRYMRQHLDHVRRRLMFEPRGHRDMYGAVLVPSELPDAHLGVLFLHNEGYSSMCGHAVLALGRFALDFGLVPAPPAGTREARVNIHCPCGLVTAFVACEDGRSHGPVRFHSVPAFVLATDLMVDVPGHGKVMVDIAYGGAFYAFVTAEKLGLDICSAKTRDLVDAASAVTEAVKAQFKINHPDSEDLAFLYGTILTDGKDAYTKEPTTNICVFADEQVDRSPTGSGVTARIALQYHKGLLELNQMRAFKSSATGSVFTGKAVREAKCGDFKAVIVEVSGQAHYTGTASFIIEDDDPLRDGFLLK [L3HYPDH] | 54.4 °C | 0.886 | 0.62 | 55.6 °C |
| MESQKEARTLQEPVARPSGASSSQTPNDKERREGGAVPAAAALGAEADDDSADGLWELPVEPAERRPECTRCSRPQKVCLCPFLPAHPLHISTHLYIIQHPAEENKVLRTVPLLAACLPQDKCKVKIGRRFSEERDPELSTVCRKSGTLILYPGAEAANLEEFILDSPVYPSTIIIIDGTWSQAKDIFYKNSLFRHPKQVQLKTSISSQYVIRMQPTNRCLSTLECAAVALSILEKNNYIQETLLRPLQALCSFQLQHGAQIRLSKEHLLKNGLYPKPMPKNKRKLRKMELLMNSVKI [DTWD2] | 51.2 °C | 0.37 | 0.624 |  |
| METDLNSQDRKDLDKFIKFFALKTVQVIVQARLGEKICTRSSSSPTGSDWFNLAIKDIPEVTHEAKKALAGQLPAVGRSMCVEISLKTSEGDSMELEIWCLEMNEKCDKEIKVSYTVYNRLSLLLKSLLAITRVTPAYRLSRKQGHEYVILYRIYFGEVQLSGLGEGFQTVRVGTVGTPVGTITLSCAYRINLAFMSTRQFERTPPIMGIIIDHFVDRPYPSSSPMHPCNYRTAGEDTGVIYPSVEDSQEVCTTSFSTSPPSQLSSSRLSYQPAALGVGSADLAYPVVFAAGLNATHPHQLMVPGKEGGVPLAPNQPVHGTQADQERLATCTPSDRTHCAATPSSSEDTETVSNSSEGRASPHDVLETIFVRKVGAFVNKPINQVTLTSLDIPFAMFAPKNLELEDTDPMVNPPDSPETESPLQGSLHSDGSSGGSSGNTHDDFVMIDFKPAFSKDDILPMDLGTFYREFQNPPQLSSLSIDIGAQSMAEDLDSLPEKLAVHEKNVREFDAFVETLQ [ATG13] | 52.2 °C | 0.178 | -1.05 | 51.7 °C |
